Laboratory results taken from PMC9482650, “Quantitative fragmentomics allow affinity mapping of interactomes” (Nature Communications, 2022).

T1: NHERF3_4, Q5T2W1
T1 sequence (Q5T2W1 373-468, limits assumed, looked up): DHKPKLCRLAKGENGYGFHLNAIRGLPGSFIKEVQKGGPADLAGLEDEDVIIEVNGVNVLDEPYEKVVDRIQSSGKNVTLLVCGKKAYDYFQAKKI

T2: APBA2_1, Q99767
T2 sequence (Q99767 563-664, limits assumed, looked up): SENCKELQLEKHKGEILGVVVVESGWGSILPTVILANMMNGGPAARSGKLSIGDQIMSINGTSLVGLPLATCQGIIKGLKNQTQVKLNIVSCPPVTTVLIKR

T3: PARD3B_1, Q8TEW8
T3 sequence (Q8TEW8 196-299, limits assumed, looked up): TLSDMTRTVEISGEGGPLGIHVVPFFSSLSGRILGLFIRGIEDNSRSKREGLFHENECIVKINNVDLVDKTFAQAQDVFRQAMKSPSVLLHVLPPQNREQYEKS

T4: SNTG2, Q9NY99
T4 sequence (Q9NY99 68-166, limits assumed, looked up): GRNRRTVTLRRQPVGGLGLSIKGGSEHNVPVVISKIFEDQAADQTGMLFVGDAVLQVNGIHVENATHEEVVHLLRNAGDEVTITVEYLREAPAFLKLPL

T5: DLG3_1, Q92796
T5 sequence (Q92796 125-227, limits assumed, looked up): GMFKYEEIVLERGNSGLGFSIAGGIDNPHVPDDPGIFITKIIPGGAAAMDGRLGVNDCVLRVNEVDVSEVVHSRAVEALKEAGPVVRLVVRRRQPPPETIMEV

T6: MPDZ_12, O75970
T6 sequence (O75970 1857-1958, limits assumed, looked up): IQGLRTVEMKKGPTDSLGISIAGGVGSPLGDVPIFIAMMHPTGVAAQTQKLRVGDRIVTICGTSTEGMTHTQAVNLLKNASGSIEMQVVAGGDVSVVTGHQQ

T7: SHANK1, Q9Y566
T7 sequence (Q9Y566 658-767, limits assumed, looked up): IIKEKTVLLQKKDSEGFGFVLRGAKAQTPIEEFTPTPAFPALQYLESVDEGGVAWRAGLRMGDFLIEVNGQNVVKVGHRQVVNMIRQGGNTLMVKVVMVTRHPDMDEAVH

T8: RHPN1, Q8TCX5
T8 sequence (Q8TCX5 508-602, limits assumed, looked up): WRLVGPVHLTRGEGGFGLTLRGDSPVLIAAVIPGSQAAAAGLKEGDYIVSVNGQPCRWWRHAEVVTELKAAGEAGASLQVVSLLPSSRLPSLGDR

T9: DVL3, Q92997
T9 sequence (Q92997 244-331, limits assumed, looked up): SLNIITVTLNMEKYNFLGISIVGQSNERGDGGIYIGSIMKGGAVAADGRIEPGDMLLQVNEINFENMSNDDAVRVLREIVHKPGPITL

T10: DLG3_2, Q92796
T10 sequence (Q92796 221-321, limits assumed, looked up): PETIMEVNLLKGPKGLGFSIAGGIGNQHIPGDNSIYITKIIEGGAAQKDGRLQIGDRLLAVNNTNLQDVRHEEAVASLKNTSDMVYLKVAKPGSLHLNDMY


target: T1, NHERF3_4, Q5T2W1; assay: holdup assay; parameters: key: below the threshold = too weak to quantify, mostly under pKd 3.1 to 4; conditions: plain residues with an end cap or a label only (N-terminal biotin on a linker: ado-ado)

Row | Binder | pKd
1 | LGHTPFVDEL [UQCRC2, P22695] | below the threshold
2 | GDGLDDEIAV [NOS1AP, O75052] | below the threshold

target: Inadl_8, Q8NI35; assay: holdup assay; parameters: key: below the threshold = too weak to quantify, mostly under pKd 3.1 to 4; conditions: plain residues with an end cap or a label only (N-terminal biotin on a linker: ado-ado)
Sequence (Q8NI35 1425-1530): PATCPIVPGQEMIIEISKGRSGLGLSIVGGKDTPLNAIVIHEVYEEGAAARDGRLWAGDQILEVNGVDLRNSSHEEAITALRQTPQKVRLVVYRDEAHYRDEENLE

Row | Binder | pKd
3 | LGHTPFVDEL [UQCRC2, P22695] | below the threshold
4 | GDGLDDEIAV [NOS1AP, O75052] | below the threshold

target: LIMK2, P53671; assay: holdup assay; parameters: key: below the threshold = too weak to quantify, mostly under pKd 3.1 to 4; conditions: plain residues with an end cap or a label only (N-terminal biotin on a linker: ado-ado)
Sequence (P53671 143-248): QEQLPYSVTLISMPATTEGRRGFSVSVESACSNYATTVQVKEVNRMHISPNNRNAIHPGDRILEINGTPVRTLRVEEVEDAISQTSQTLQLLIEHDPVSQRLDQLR

Row | Binder | pKd
5 | LGHTPFVDEL [UQCRC2, P22695] | below the threshold
6 | GDGLDDEIAV [NOS1AP, O75052] | below the threshold

target: Inadl_6, Q8NI35; assay: holdup assay; parameters: key: below the threshold = too weak to quantify, mostly under pKd 3.1 to 4; conditions: plain residues with an end cap or a label only (N-terminal biotin on a linker: ado-ado)
Sequence (Q8NI35 1058-1167): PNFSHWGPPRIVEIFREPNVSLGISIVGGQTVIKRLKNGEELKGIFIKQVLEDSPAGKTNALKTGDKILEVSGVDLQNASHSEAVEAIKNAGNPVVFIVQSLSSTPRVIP

Row | Binder | pKd
7 | LGHTPFVDEL [UQCRC2, P22695] | below the threshold
8 | GDGLDDEIAV [NOS1AP, O75052] | below the threshold

target: MAST1, Q9Y2H9; assay: holdup assay; parameters: key: below the threshold = too weak to quantify, mostly under pKd 3.1 to 4; conditions: plain residues with an end cap or a label only (N-terminal biotin on a linker: ado-ado)
Sequence (Q9Y2H9 962-1065): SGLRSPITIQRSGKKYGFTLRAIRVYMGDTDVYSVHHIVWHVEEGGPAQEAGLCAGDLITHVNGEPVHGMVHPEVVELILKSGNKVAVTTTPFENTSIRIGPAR

Row | Binder | pKd
9 | LGHTPFVDEL [UQCRC2, P22695] | 4.12
10 | GDGLDDEIAV [NOS1AP, O75052] | 3.72

target: GRID2IP_2, A4D2P6; assay: holdup assay; parameters: key: below the threshold = too weak to quantify, mostly under pKd 3.1 to 4; conditions: plain residues with an end cap or a label only (N-terminal biotin on a linker: ado-ado)
Sequence (A4D2P6 272-370): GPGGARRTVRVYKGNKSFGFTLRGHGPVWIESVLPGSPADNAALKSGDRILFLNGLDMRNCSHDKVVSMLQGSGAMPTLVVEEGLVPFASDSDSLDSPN

Row | Binder | pKd
11 | LGHTPFVDEL [UQCRC2, P22695] | below the threshold
12 | GDGLDDEIAV [NOS1AP, O75052] | below the threshold

target: PARD3_3, Q8TEW0; assay: holdup assay; parameters: key: below the threshold = too weak to quantify, mostly under pKd 3.1 to 4; conditions: plain residues with an end cap or a label only (N-terminal biotin on a linker: ado-ado)
Sequence (Q8TEW0 582-685): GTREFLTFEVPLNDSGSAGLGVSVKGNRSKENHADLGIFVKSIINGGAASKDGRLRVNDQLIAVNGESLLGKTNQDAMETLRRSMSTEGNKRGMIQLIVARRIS

Row | Binder | pKd
13 | LGHTPFVDEL [UQCRC2, P22695] | below the threshold
14 | GDGLDDEIAV [NOS1AP, O75052] | 4.3

target: T2, APBA2_1, Q99767; assay: holdup assay; parameters: key: below the threshold = too weak to quantify, mostly under pKd 3.1 to 4; conditions: plain residues with an end cap or a label only (N-terminal biotin on a linker: ado-ado)

Row | Binder | pKd
15 | LGHTPFVDEL [UQCRC2, P22695] | below the threshold
16 | GDGLDDEIAV [NOS1AP, O75052] | below the threshold

target: LNX1_2, Q8TBB1; assay: holdup assay; parameters: key: below the threshold = too weak to quantify, mostly under pKd 3.1 to 4; conditions: plain residues with an end cap or a label only (N-terminal biotin on a linker: ado-ado)
Sequence (Q8TBB1 371-470): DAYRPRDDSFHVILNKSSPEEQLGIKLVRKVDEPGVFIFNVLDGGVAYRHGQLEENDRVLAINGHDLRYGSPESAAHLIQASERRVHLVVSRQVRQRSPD

Row | Binder | pKd
17 | LGHTPFVDEL [UQCRC2, P22695] | below the threshold
18 | GDGLDDEIAV [NOS1AP, O75052] | 3.68

target: T3, PARD3B_1, Q8TEW8; assay: holdup assay; parameters: key: below the threshold = too weak to quantify, mostly under pKd 3.1 to 4; conditions: plain residues with an end cap or a label only (N-terminal biotin on a linker: ado-ado)

Row | Binder | pKd
19 | LGHTPFVDEL [UQCRC2, P22695] | below the threshold
20 | GDGLDDEIAV [NOS1AP, O75052] | below the threshold

target: GOPC, Q9HD26; assay: holdup assay; parameters: key: below the threshold = too weak to quantify, mostly under pKd 3.1 to 4; conditions: plain residues with an end cap or a label only (N-terminal biotin on a linker: ado-ado)

Row | Binder | pKd
21 | LGHTPFVDEL [UQCRC2, P22695] | below the threshold
22 | GDGLDDEIAV [NOS1AP, O75052] | below the threshold

target: SCRIB_1, Q14160; assay: holdup assay; parameters: key: below the threshold = too weak to quantify, mostly under pKd 3.1 to 4; conditions: plain residues with an end cap or a label only (N-terminal biotin on a linker: ado-ado)
Sequence (Q14160 718-814): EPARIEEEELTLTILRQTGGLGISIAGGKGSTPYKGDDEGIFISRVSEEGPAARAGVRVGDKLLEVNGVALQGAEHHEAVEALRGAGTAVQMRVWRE

Row | Binder | pKd
23 | LGHTPFVDEL [UQCRC2, P22695] | below the threshold
24 | GDGLDDEIAV [NOS1AP, O75052] | below the threshold

target: LNX1_1, Q8TBB1; assay: holdup assay; parameters: key: below the threshold = too weak to quantify, mostly under pKd 3.1 to 4; conditions: plain residues with an end cap or a label only (N-terminal biotin on a linker: ado-ado)
Sequence (Q8TBB1 261-371): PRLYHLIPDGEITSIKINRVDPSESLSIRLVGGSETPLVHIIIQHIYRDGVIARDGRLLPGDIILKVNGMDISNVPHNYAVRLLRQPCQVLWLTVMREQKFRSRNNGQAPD

Row | Binder | pKd
25 | LGHTPFVDEL [UQCRC2, P22695] | below the threshold
26 | GDGLDDEIAV [NOS1AP, O75052] | below the threshold

target: IL16_3, Q14005; assay: holdup assay; parameters: key: below the threshold = too weak to quantify, mostly under pKd 3.1 to 4; conditions: plain residues with an end cap or a label only (N-terminal biotin on a linker: ado-ado)
Sequence (Q14005 1107-1207): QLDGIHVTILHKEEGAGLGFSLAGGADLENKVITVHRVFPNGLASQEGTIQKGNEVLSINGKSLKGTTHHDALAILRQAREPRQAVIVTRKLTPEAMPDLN

Row | Binder | pKd
27 | LGHTPFVDEL [UQCRC2, P22695] | below the threshold
28 | GDGLDDEIAV [NOS1AP, O75052] | below the threshold

target: T4, SNTG2, Q9NY99; assay: holdup assay; parameters: key: below the threshold = too weak to quantify, mostly under pKd 3.1 to 4; conditions: plain residues with an end cap or a label only (N-terminal biotin on a linker: ado-ado)

Row | Binder | pKd
29 | LGHTPFVDEL [UQCRC2, P22695] | below the threshold
30 | GDGLDDEIAV [NOS1AP, O75052] | below the threshold

target: T5, DLG3_1, Q92796; assay: holdup assay; parameters: key: below the threshold = too weak to quantify, mostly under pKd 3.1 to 4; conditions: plain residues with an end cap or a label only (N-terminal biotin on a linker: ado-ado)

Row | Binder | pKd
31 | LGHTPFVDEL [UQCRC2, P22695] | below the threshold
32 | GDGLDDEIAV [NOS1AP, O75052] | below the threshold

target: SCRIB_2, Q14160; assay: holdup assay; parameters: key: below the threshold = too weak to quantify, mostly under pKd 3.1 to 4; conditions: plain residues with an end cap or a label only (N-terminal biotin on a linker: ado-ado)
Sequence (Q14160 857-960): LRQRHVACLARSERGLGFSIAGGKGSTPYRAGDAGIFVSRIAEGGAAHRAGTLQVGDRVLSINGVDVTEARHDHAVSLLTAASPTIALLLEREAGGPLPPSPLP

Row | Binder | pKd
33 | LGHTPFVDEL [UQCRC2, P22695] | below the threshold
34 | GDGLDDEIAV [NOS1AP, O75052] | below the threshold

target: MAST2, Q6P0Q8; assay: holdup assay; parameters: key: below the threshold = too weak to quantify, mostly under pKd 3.1 to 4; conditions: plain residues with an end cap or a label only (N-terminal biotin on a linker: ado-ado)
Sequence (Q6P0Q8 1099-1202): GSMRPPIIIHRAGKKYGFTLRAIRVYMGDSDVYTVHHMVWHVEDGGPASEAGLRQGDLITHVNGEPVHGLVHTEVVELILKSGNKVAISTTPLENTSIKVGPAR

Row | Binder | pKd
35 | LGHTPFVDEL [UQCRC2, P22695] | 4.56
36 | GDGLDDEIAV [NOS1AP, O75052] | 4.04

target: T6, MPDZ_12, O75970; assay: holdup assay; parameters: key: below the threshold = too weak to quantify, mostly under pKd 3.1 to 4; conditions: plain residues with an end cap or a label only (N-terminal biotin on a linker: ado-ado)

Row | Binder | pKd
37 | LGHTPFVDEL [UQCRC2, P22695] | below the threshold
38 | GDGLDDEIAV [NOS1AP, O75052] | below the threshold

target: T7, SHANK1, Q9Y566; assay: holdup assay; parameters: key: below the threshold = too weak to quantify, mostly under pKd 3.1 to 4; conditions: plain residues with an end cap or a label only (N-terminal biotin on a linker: ado-ado)

Row | Binder | pKd
39 | LGHTPFVDEL [UQCRC2, P22695] | below the threshold
40 | GDGLDDEIAV [NOS1AP, O75052] | below the threshold

target: T8, RHPN1, Q8TCX5; assay: holdup assay; parameters: key: below the threshold = too weak to quantify, mostly under pKd 3.1 to 4; conditions: plain residues with an end cap or a label only (N-terminal biotin on a linker: ado-ado)

Row | Binder | pKd
41 | LGHTPFVDEL [UQCRC2, P22695] | below the threshold
42 | GDGLDDEIAV [NOS1AP, O75052] | below the threshold

target: TJP1_2, Q07157; assay: holdup assay; parameters: key: below the threshold = too weak to quantify, mostly under pKd 3.1 to 4; conditions: plain residues with an end cap or a label only (N-terminal biotin on a linker: ado-ado)
Sequence (Q07157 181-274): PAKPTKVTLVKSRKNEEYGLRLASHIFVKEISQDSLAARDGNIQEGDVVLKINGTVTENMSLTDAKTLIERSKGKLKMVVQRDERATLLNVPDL

Row | Binder | pKd
43 | LGHTPFVDEL [UQCRC2, P22695] | below the threshold
44 | GDGLDDEIAV [NOS1AP, O75052] | below the threshold

target: T9, DVL3, Q92997; assay: holdup assay; parameters: key: below the threshold = too weak to quantify, mostly under pKd 3.1 to 4; conditions: plain residues with an end cap or a label only (N-terminal biotin on a linker: ado-ado)

Row | Binder | pKd
45 | LGHTPFVDEL [UQCRC2, P22695] | below the threshold
46 | GDGLDDEIAV [NOS1AP, O75052] | below the threshold

target: GORASP2, Q9H8Y8; assay: holdup assay; parameters: key: below the threshold = too weak to quantify, mostly under pKd 3.1 to 4; conditions: plain residues with an end cap or a label only (N-terminal biotin on a linker: ado-ado)

Row | Binder | pKd
47 | LGHTPFVDEL [UQCRC2, P22695] | below the threshold
48 | GDGLDDEIAV [NOS1AP, O75052] | below the threshold

target: T10, DLG3_2, Q92796; assay: holdup assay; parameters: key: below the threshold = too weak to quantify, mostly under pKd 3.1 to 4; conditions: plain residues with an end cap or a label only (N-terminal biotin on a linker: ado-ado)

Row | Binder | pKd
49 | LGHTPFVDEL [UQCRC2, P22695] | 3.48
50 | GDGLDDEIAV [NOS1AP, O75052] | 4.01

target: GRIP2_4, Q9C0E4; assay: holdup assay; parameters: key: below the threshold = too weak to quantify, mostly under pKd 3.1 to 4; conditions: plain residues with an end cap or a label only (N-terminal biotin on a linker: ado-ado)
Sequence (Q9C0E4 446-548): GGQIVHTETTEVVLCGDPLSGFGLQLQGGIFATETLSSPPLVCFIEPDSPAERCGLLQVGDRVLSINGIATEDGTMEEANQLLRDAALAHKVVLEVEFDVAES

Row | Binder | pKd
51 | LGHTPFVDEL [UQCRC2, P22695] | below the threshold
52 | GDGLDDEIAV [NOS1AP, O75052] | below the threshold

target: FRMPD2_1, Q68DX3; assay: holdup assay; parameters: key: below the threshold = too weak to quantify, mostly under pKd 3.1 to 4; conditions: plain residues with an end cap or a label only (N-terminal biotin on a linker: ado-ado)
Sequence (Q68DX3 770-861): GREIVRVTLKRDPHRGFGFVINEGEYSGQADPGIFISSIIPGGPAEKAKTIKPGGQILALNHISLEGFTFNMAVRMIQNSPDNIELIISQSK

Row | Binder | pKd
53 | LGHTPFVDEL [UQCRC2, P22695] | below the threshold
54 | GDGLDDEIAV [NOS1AP, O75052] | below the threshold
